Target: mononucleosomes reconstituted by salt dialysis with purified recombinant Drosophila core histones (Drosophila), P84051
Test: native gel or EMSA; gel mobility shift; 147 bp X. borealis 5S rDNA mononucleosomes (60 nM) with indicated amounts of Dsup; HEG buffer (25 mM Hepes K+, pH 7.6, 0.1 mM EDTA, 10% glycerol), 100 mM KCl, BSA; 30°C 30 min; nondenaturing 4.5% polyacrylamide gel at 4°C, ethidium bromide
Conditions: remark: other sources report otherwise

stoichiometry N (molecules of Rv Dsup per nucleosome): 2
B1: Ramazzottius varieornatus damage suppressor protein (Rv Dsup), P0DOW4 1-445 (natural protein)
chain: MASTHQSSTEPSSTGKSEETKKDASQGSGQDSKNVTVTKGTGSSATSAAIVKTGGSQGKDSSTTAGSSSTQGQKFSTTPTDPKTFSSDQKEKSKSPAKEVPSGGDSKSQGDTKSQSDAKSSGQSQGQSKDSGKSSSDSSKSHSVIGAVKDVVAGAKDVAGKAVEDAPSIMHTAVDAVKNAATTVKDVASSAASTVAEKVVDAYHSVVGDKTDDKKEGEHSGDKKDDSKAGSGSGQGGDNKKSEGETSGQAESSSGNEGAAPAKGRGRGRPPAAAKGVAKGAAKGAAASKGAKSGAESSKGGEQSSGDIEMADASSKGGSDQRDSAATVGEGGASGSEGGAKKGRGRGAGKKADAGDTSAEPPRRSSRLTSSGTGAGSAPAAAKGGAKRAASSSSTPSNAKKQATGGAGKAAATKATAAKSAASKAPQNGAGAKKKGGKAGGRKRK
